Paper PMC11637584 (2024)

Biological target: Ubiquitin (Homo sapiens, UniProt P0CG48)
Assay: BLI

B1: MERS-CoV papain-like protease (PLpro) PLpro (protein)
chain: QLTIEVLVTVDGVNFRTVVLNNKNTYRSQLGCVFFNGADISDTIPDEKQNGHSLYLADNLTADETKALKELYGPVDPTFLHRFYSLKAAVHKWKMVVCDKVRSLKLSDNNCYLNAVIMTLDLLKDIKFVIPALQHAFMKHKGGDSTDFIALIMAYGNCTFGAPDDASRLLHTVLAKAELCCSARMVWREWCNVCGIKDVVLQGLKACCYVGVQTVEDLRARMTYVCQCGGERHRQIVEHTTPWLLLSGTPNEKLVTTSTAPDFVAFNVFQGIETAVGHYVHARLKGGLILKFDSGTVSKTSDWKCKVTDVLFPGQKYSSDCN
Question: For B1, which Kd is on record?
Answer: The Kd was 40.8 µM.
